These results are taken from patent US20050119176A1 (BURNHAM INSTITUTE, published 2005).

Where no end group is shown, it is not given here. [ ]: non-standard residue; d: D form. 2Nal = N[C@@H](Cc1ccc2ccccc2c1)C(=O)O; d2Nal = N[C@H](Cc1ccc2ccccc2c1)C(=O)O; 2Thi = N[C@@H](Cc1cccs1)C(=O)O; Cha = N[C@@H](CC1CCCCC1)C(=O)O; d2Thi = N[C@H](Cc1cccs1)C(=O)O; dCha = N[C@H](CC1CCCCC1)C(=O)O

The target in one test is BIR3RING (human) (UniProt P98170). As to the kind of experiment: fluorescence polarization; 20 nM rhodamine-SMAC, BIR3RING titrated. A general note: Polarisation of emitted light reports the rotation of a fluorescent probe.
Test [1] deals with GST-BIR2 (glutathione-S-transferase-BIR2 fusion protein) (human) (UniProt P98170). As to the kind of experiment: fluorescence polarization; 20 nM rhodamine-SMAC, GST-BIR2 from 0 to 495 nM.
The next test addresses GST-XIAP (human, UniProt P98170 1-497). As to the kind of experiment: cell-based or functional assay.

Chain of GST-XIAP (P98170 whole entry): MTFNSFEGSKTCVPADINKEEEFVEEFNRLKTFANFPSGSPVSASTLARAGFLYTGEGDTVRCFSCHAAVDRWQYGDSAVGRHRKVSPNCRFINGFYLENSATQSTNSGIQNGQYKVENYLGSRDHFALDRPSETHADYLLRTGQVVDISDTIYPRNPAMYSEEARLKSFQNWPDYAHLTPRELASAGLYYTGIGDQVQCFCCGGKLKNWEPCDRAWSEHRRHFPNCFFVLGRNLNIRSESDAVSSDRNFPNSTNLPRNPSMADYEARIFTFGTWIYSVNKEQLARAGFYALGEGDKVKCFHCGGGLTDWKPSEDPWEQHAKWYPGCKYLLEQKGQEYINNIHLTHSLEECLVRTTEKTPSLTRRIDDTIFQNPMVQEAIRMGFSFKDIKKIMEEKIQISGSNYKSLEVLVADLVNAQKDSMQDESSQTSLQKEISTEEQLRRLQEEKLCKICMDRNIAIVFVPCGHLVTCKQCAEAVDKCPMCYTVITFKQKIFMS
Chain of GST-BIR2 (glutathione-S-transferase-BIR2 fusion protein) (human) (P98170 124-240): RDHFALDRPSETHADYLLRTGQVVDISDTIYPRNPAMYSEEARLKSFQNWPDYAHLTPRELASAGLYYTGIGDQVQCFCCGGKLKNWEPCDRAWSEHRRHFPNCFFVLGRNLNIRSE
Chain of BIR3RING (human) (P98170 243-497 limits assumed): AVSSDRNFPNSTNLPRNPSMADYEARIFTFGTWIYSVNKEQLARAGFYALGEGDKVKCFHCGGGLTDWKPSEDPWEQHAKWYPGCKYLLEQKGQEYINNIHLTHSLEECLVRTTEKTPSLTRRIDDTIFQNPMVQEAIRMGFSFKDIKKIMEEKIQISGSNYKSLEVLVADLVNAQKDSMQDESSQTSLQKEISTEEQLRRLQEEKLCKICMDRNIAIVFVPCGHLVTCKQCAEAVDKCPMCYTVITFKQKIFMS

For the molecule “rhodamine labeled SMAC (rhodamine-SMAC) of Example VII (peptide)”, the Kd (commonly the equilibrium constant for the complex coming apart) turned out to be 80 nM with BIR3RING (human) and 100 nM in test [1].

Consider A[dW]W[2Thi] [TPI 1352-6], for which the “ratio of Vmax for hydrolysis of Ac-DEVD-AFC with and without the peptide (caspase-3 + XIAP)” value with GST-XIAP was more than 2.4.

Turning to A[dW]W[2Thi] (also: Trp of TPI 1332 batch may retain formyl groups) [TPI 1332-47 / TPI 1352-47], the “ratio of Vmax for hydrolysis of Ac-DEVD-AFC with and without the peptide (caspase-3 + XIAP)” value with GST-XIAP was more than 2.4.

Consider AWW[2Thi] (also: Trp of TPI 1332 batch may retain formyl groups) [TPI 1332-1 / TPI 1352-1], for which, in the test with GST-XIAP, the “ratio of Vmax for hydrolysis of Ac-DEVD-AFC with and without the peptide (caspase-3 + XIAP)” value was more than 2.4.

For the molecule [Cha][d2Nal]W[2Thi] (also: Trp may retain a formyl group) [TPI 1332-41], in the test with GST-XIAP, the “ratio of Vmax for hydrolysis of Ac-DEVD-AFC with and without the peptide (caspase-3 + XIAP)” value is more than 2.4.

For [2Nal][dCha]W[dW] [TPI 1352-66], the “ratio of Vmax for hydrolysis of Ac-DEVD-AFC with and without the peptide (caspase-3 + XIAP)” value with GST-XIAP was more than 2.4.

Regarding [2Nal][d2Thi][dF][dW] [TPI 1352-72], the “ratio of Vmax for hydrolysis of Ac-DEVD-AFC with and without the peptide (caspase-3 + XIAP)” value with GST-XIAP was more than 2.4.
